125 sequences from the supplement of paper PMC9112550, “Optimization of the antimicrobial peptide Bac7 by deep mutational scanning” (BMC Biology, 2022) can be followed below.

The test system of the data set is Escherichia coli TOP10. Put plainly: shrunken log2 fold change of peptide-encoding DNA abundance (4.5 h post-induction vs induction); higher = less antimicrobial activity (less host growth inhibition). Conditions: time post-induction: 4.5 h; library: site-saturation at positions 5, 18, 19, 20.
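Note: peptides expressed intracellularly from a pBAD plasmid library in pooled LB shake-flask culture, induced with 0.3% L-arabinose, DNA abundance read by NGS, three biological replicates, DESeq2 with apeglm shrinkage.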

With RRIRQRPPRLPRPRPRPIYNPRP, the “shrunken log2 fold change” value is -0.478.
With RRIRWRPPRLPRPRPRPHRQPRP the figure was -0.165; with RRIRPRPPRLPRPRPRPPTLPRP, 0.129; with RRIRNRPPRLPRPRPRPGFSPRP, 0.0167.
With RRIRARPPRLPRPRPRPPSLPRP the figure was 0.513; with RRIRLRPPRLPRPRPRPIYHPRP, -0.6; with RRIRCRPPRLPRPRPRPCMYPRP, -0.0898.
For RRIRGRPPRLPRPRPRPYGKPRP, the “shrunken log2 fold change” value was -0.124.
The figure for RRIRRRPPRLPRPRPRPFLIPRP is 1.61.
Turning to RRIRSRPPRLPRPRPRPNKVPRP, the “shrunken log2 fold change” value was -0.283.
The figure for RRIRARPPRLPRPRPRPKHYPRP is -0.277; for RRIRCRPPRLPRPRPRPRYRPRP it is -0.176; for RRIRPRPPRLPRPRPRPGGRPRP it is 0.461.
The figure for RRIRLRPPRLPRPRPRPWWWPRP is -0.00192; for RRIRRRPPRLPRPRPRPLVIPRP it is -0.0686.
The figure for RRIRCRPPRLPRPRPRPVAYPRP is -0.232; for RRIRQRPPRLPRPRPRPSTWPRP it is -0.116.
For the sequence RRIRPRPPRLPRPRPRPYTVPRP, the “shrunken log2 fold change” value was -0.947.
As for RRIRCRPPRLPRPRPRPDNCPRP, the “shrunken log2 fold change” value came to 0.0206.
The figure for RRIRMRPPRLPRPRPRPIGRPRP is -0.00776.
With RRIRPRPPRLPRPRPRPSECPRP the figure was -0.651.
With RRIRGRPPRLPRPRPRPGGFPRP the figure was 0.819; with RRIRARPPRLPRPRPRPKYMPRP, -0.477; with RRIRHRPPRLPRPRPRPFWYPRP, -0.167.
Regarding RRIRERPPRLPRPRPRPIAYPRP, the “shrunken log2 fold change” value was -0.0148.
The figure for RRIRMRPPRLPRPRPRPNGIPRP is 0.0753.
The figure for RRIRIRPPRLPRPRPRPWTAPRP is -0.307; for RRIRDRPPRLPRPRPRPGLPPRP it is 0.245; for RRIRVRPPRLPRPRPRPMEPPRP it is 0.0643.
The figure for RRIRRRPPRLPRPRPRPQQQPRP is -0.0864; for RRIRQRPPRLPRPRPRPAMRPRP it is 0.718.
Regarding RRIRDRPPRLPRPRPRPWFTPRP, the “shrunken log2 fold change” value is -0.175.
With RRIRGRPPRLPRPRPRPSWEPRP the figure was 0.0693.
In the case of RRIRERPPRLPRPRPRPIPNPRP, the “shrunken log2 fold change” value was -0.135.
In the case of RRIRKRPPRLPRPRPRPNGHPRP, the “shrunken log2 fold change” value is -0.0369.
With RRIRIRPPRLPRPRPRPAHCPRP the figure was 0.0837; with RRIRARPPRLPRPRPRPQPIPRP, 0.16.
With RRIRWRPPRLPRPRPRPFACPRP the figure was 0.00273; with RRIRGRPPRLPRPRPRPCQYPRP, 0.0685; with RRIRTRPPRLPRPRPRPPEGPRP, 0.308.
Consider RRIRTRPPRLPRPRPRPVTEPRP, for which the “shrunken log2 fold change” value came to 0.0394.
The figure for RRIRPRPPRLPRPRPRPHHKPRP is -0.647.
With RRIRKRPPRLPRPRPRPRIFPRP the figure was -0.0494; with RRIRVRPPRLPRPRPRPFDNPRP, -0.359.
Take RRIRLRPPRLPRPRPRPHPYPRP: the “shrunken log2 fold change” value is -0.379.
The figure for RRIRWRPPRLPRPRPRPLNIPRP is -0.211; for RRIRNRPPRLPRPRPRPRTLPRP it is -0.0666.
The figure for RRIRNRPPRLPRPRPRPPIVPRP is -0.154; for RRIRERPPRLPRPRPRPCTFPRP it is -0.129.
The figure for RRIRDRPPRLPRPRPRPHQLPRP is -0.0991; for RRIRIRPPRLPRPRPRPQCPPRP it is -0.472; for RRIRVRPPRLPRPRPRPTLWPRP it is 0.259.
As to RRIRDRPPRLPRPRPRPWDFPRP, the “shrunken log2 fold change” value worked out at 0.238.
With RRIRSRPPRLPRPRPRPEICPRP the figure was 0.0531; with RRIRNRPPRLPRPRPRPPDAPRP, 0.0157.
As for RRIRYRPPRLPRPRPRPTMFPRP, the “shrunken log2 fold change” value is -0.234.
With RRIRKRPPRLPRPRPRPPRAPRP the figure was 1.15; with RRIRVRPPRLPRPRPRPPWCPRP, 0.497.
Take RRIRTRPPRLPRPRPRPFMWPRP: the “shrunken log2 fold change” value is -0.119.
With RRIRNRPPRLPRPRPRPVPDPRP the figure was -0.0278; with RRIRNRPPRLPRPRPRPFMAPRP, -0.513.
In the case of RRIRLRPPRLPRPRPRPQFWPRP, the “shrunken log2 fold change” value came out at 0.099.
Take RRIRCRPPRLPRPRPRPDIGPRP: the “shrunken log2 fold change” value is -0.293.
With RRIRGRPPRLPRPRPRPFDAPRP, the “shrunken log2 fold change” value is -0.00556.
For the sequence RRIRQRPPRLPRPRPRPGHLPRP, the “shrunken log2 fold change” value was -0.0699.
The figure for RRIRQRPPRLPRPRPRPPAGPRP is 0.866; for RRIRERPPRLPRPRPRPIHMPRP it is -0.0835.
The figure for RRIRHRPPRLPRPRPRPMGPPRP is 0.0818.
For the sequence RRIRMRPPRLPRPRPRPLMFPRP, the “shrunken log2 fold change” value was found to be 0.0219.
With RRIRYRPPRLPRPRPRPDKVPRP the figure was -0.102; with RRIRRRPPRLPRPRPRPYQEPRP, -0.259.
Regarding RRIRHRPPRLPRPRPRPNAWPRP, the “shrunken log2 fold change” value came to 0.341.
Take RRIRVRPPRLPRPRPRPSECPRP: the “shrunken log2 fold change” value is 0.0274.
The figure for RRIRVRPPRLPRPRPRPFRDPRP is -0.0207.
As for RRIRDRPPRLPRPRPRPHANPRP, the “shrunken log2 fold change” value amounted to 0.0766.
As to RRIRKRPPRLPRPRPRPKWQPRP, the “shrunken log2 fold change” value amounted to 0.0343.
With RRIRDRPPRLPRPRPRPPILPRP the figure was -0.147; with RRIRYRPPRLPRPRPRPYTQPRP, -0.273.
RRIRPRPPRLPRPRPRPHPVPRP: the “shrunken log2 fold change” value was determined as 0.151.
For RRIRMRPPRLPRPRPRPKDPPRP, the “shrunken log2 fold change” value amounted to 0.438.
RRIRKRPPRLPRPRPRPCESPRP: the “shrunken log2 fold change” value is -0.0138.
With RRIRSRPPRLPRPRPRPAFQPRP the figure was -0.0696; with RRIRGRPPRLPRPRPRPNLAPRP, 0.961.
The figure for RRIRRRPPRLPRPRPRPFMDPRP is -0.148; for RRIRGRPPRLPRPRPRPIVWPRP it is 0.381; for RRIRQRPPRLPRPRPRPSMNPRP it is -0.568.
With RRIRNRPPRLPRPRPRPLEHPRP the figure was -0.0225.
On to RRIRNRPPRLPRPRPRPMAAPRP, for which the “shrunken log2 fold change” value is 0.582.
Regarding RRIRGRPPRLPRPRPRPSGMPRP, the “shrunken log2 fold change” value stood at 0.48.
With RRIRFRPPRLPRPRPRPQKRPRP the figure was 0.297; with RRIRKRPPRLPRPRPRPSAGPRP, 0.227.
Take RRIRNRPPRLPRPRPRPMPPPRP: the “shrunken log2 fold change” value amounted to 0.208.
With RRIRDRPPRLPRPRPRPNHRPRP the figure was -0.346; with RRIRQRPPRLPRPRPRPWNRPRP, 0.013.
With RRIRMRPPRLPRPRPRPSAGPRP the figure was 0.655.
With RRIRHRPPRLPRPRPRPTVEPRP the figure was -0.0265; with RRIRWRPPRLPRPRPRPYDPPRP, -0.126.
In the case of RRIRMRPPRLPRPRPRPSWFPRP, the “shrunken log2 fold change” value amounted to 0.0112.
In the case of RRIRDRPPRLPRPRPRPRPIPRP, the “shrunken log2 fold change” value was 0.429.
RRIRNRPPRLPRPRPRPTTTPRP: the “shrunken log2 fold change” value stood at 0.082.
With RRIRIRPPRLPRPRPRPECQPRP, the “shrunken log2 fold change” value was -0.00158.
RRIRCRPPRLPRPRPRPKPEPRP: the “shrunken log2 fold change” value amounted to 0.377.
Turning to RRIRFRPPRLPRPRPRPISHPRP, the “shrunken log2 fold change” value is -0.202.
With RRIRKRPPRLPRPRPRPLYFPRP the figure was -0.271.
With RRIRQRPPRLPRPRPRPAEVPRP the figure was 0.142.
With RRIRMRPPRLPRPRPRPYEYPRP the figure was 0.0662; with RRIRVRPPRLPRPRPRPWFQPRP, -0.139; with RRIRFRPPRLPRPRPRPAPAPRP, 0.674.
Regarding RRIRPRPPRLPRPRPRPVWQPRP, the “shrunken log2 fold change” value came to 0.23.
With RRIRYRPPRLPRPRPRPDEFPRP the figure was 0.0196.
With RRIRFRPPRLPRPRPRPFEDPRP, the “shrunken log2 fold change” value is -0.0916.
With RRIRTRPPRLPRPRPRPPNHPRP the figure was -0.000973.
The figure for RRIRLRPPRLPRPRPRPVQYPRP is -0.0382.
With RRIRKRPPRLPRPRPRPNNLPRP, the “shrunken log2 fold change” value was -0.218.
With RRIRTRPPRLPRPRPRPDHPPRP the figure was -0.224; with RRIRDRPPRLPRPRPRPQQTPRP, -0.252.
As for RRIRARPPRLPRPRPRPFFEPRP, the “shrunken log2 fold change” value was determined as 0.423.
The figure for RRIRMRPPRLPRPRPRPCWDPRP is 0.439; for RRIRCRPPRLPRPRPRPGDPPRP it is 0.132.
Take RRIRPRPPRLPRPRPRPTFLPRP: the “shrunken log2 fold change” value was -0.0646.
The figure for RRIRYRPPRLPRPRPRPLQVPRP is -0.0974; for RRIRYRPPRLPRPRPRPPMCPRP it is -0.0507; for RRIRTRPPRLPRPRPRPGWDPRP it is 0.129.
As for RRIRWRPPRLPRPRPRPNKMPRP, the “shrunken log2 fold change” value worked out at 0.075.
The figure for RRIRNRPPRLPRPRPRPYPHPRP is -0.0269.
